Results: patent US20050227302A1, “Induction of apoptosis via ARTS-IAP complexes” (priority 2004, published 2005)

Columns and labels:
[1] = tested on: COS-7 cells; experiment: Active caspase 3 immunofluorescence staining in ARTS-transfected COS-7 cells; type: cell-based, African Green Monkey
Experimental: (§1) K562 and HL-60 cells were grown in RPMI 1640 medium. A549, COS-7 cells were grown in Dulbecco's modified Eagle medium (DMEM) with 4.5 grams/liter (g/L) D-glucose. All cells were grown at 37° C. in a 5% CO2 atmosphere. All media were supplemented with 10% fetal calf serum (FCS), penicillin (100 U/ml), streptomycin (100 micrograms (μg)/ml) and […] millimolar [mM]) (Biological Industries, Israel). pEF1-AU5 and pEF1-AU5-ARTS constructs were used for all ARTS transient transfection experiments. An AU5 tag was attached to the N' terminus of ARTS as described in ([…] et al, Nat Cell Biol 2: 915-921, 2000). The […] construct was generated by replacing three amino acids ([…]) at the GTP binding site, using site-directed mutagenesis (QuickChangeTM, Stratagene) with the primer: [NT] No: 1). COS-7, K562 and HL-60 cells were transiently transfected using electroporation (EasyjectTM plus-Equibio). A549 cells were transiently transfected using lipofectaminTM (Invitrogen) according to the manufacturer's protocol. The following apoptotic agents were used: TGF-beta (10 ng/ml) for 24 hours in medium containing 1% FCS; […] etoposide for 2 or 16 hours (Sigma); staurosporine (STS) ([…]) for 0-3 hours (Sigma); and arabinoside-c (ara-C, cytosar) (Pharmacia) at […] for 4 hours. In the case of transiently transfected cells, agents were added forty hours after transfections. […]

[2] = biological target: T1, XIAP (Homo sapiens, UniProt P98170); experiment: GST pull-down assay of ARTS and XIAP; type: binding
T1 construct: made in house; host or cells: bacteria (pGEX-XIAP plasmid obtained from Dr. Colin S. Duckett)
Text: For the glutathione-S-transferase (GST)-pull down assays, ARTS was subcloned into the pGEX 4T™ (Pharmacia Biotech) construct; GST-ARTS fusion protein was generated by Polymerase Chain Reaction (PCR) using the following primers: • BamHI-5′-[…]-3′ (SEQ ID No: 4) and • EcoRI-5′ […]-3′ (SEQ ID No: 5) and cloned into BamHI and EcoRI sites in pGEX 4T. Preparation of Beads
For in vitro binding studies, recombinant GST-ARTS or GST-XIAP fusion proteins were purified from bacteria. After sonication, 0.1% Triton X-100 and protease inhibitors (Mini-Complete™, Roche) were added to the bacterial extract followed by 10,000 rotations per minute (RPM) centrifugation. Supernatants of bacterial extracts were collected and incubated in the presence of glutathione-Sepharose 4B beads (Amersham Biosciences) for 30 minute at 4° C. The beads were washed three times.
Cells were lysed in RIPA buffer (150 mM NaCl, 50 mM Tris-HCl (pH 8), 1% NP-40, 0.1% SDS, 0.5% deoxycholate acid containing protease inhibitors (mini Complete, Roche)). Samples were divided into two tubes; one was rotated for 4 h at 4° C. with GST-ARTS fusion protein coupled with the glutathione beads, or GST-XIAP fusion protein. The second tube was incubated with glutathione beads alone (negative control). Samples were centrifuged at 4000-RPM at 4° C. for 4 minute and washed five times in lysis buffer, then boiled in sample buffer for 5 minutes to elute bound proteins Proteins were separated on 12.5% SDS-PAGE gel followed by Western blot analysis using monoclonal anti-ARTS antibody (Sigma), monoclonal anti-XIAP antibody (BD Transduction Laboratories) or monoclonal anti-myc antibody (Clontech).

[3] = tested on: K562 cells; experiment: Caspase 3 activity assay in ARTS-transfected K562 cells; type: cell-based
Experimental: as §1

[4] = tested on: CIAP; experiment: Interaction of ARTS with CIAP; type: binding
[5] = tested on: HL-60 cells; experiment: Caspase 3 activity assay in ARTS-transfected HL-60 cells; type: cell-based
Experimental: as §1

[6] = tested on: A549 cells; experiment: Caspase 3 activity assay in ARTS-transfected A549 cells; type: cell-based
Experimental: as §1

[7] = tested on: XIAP; experiment: Co-immunoprecipitation of ARTS-XIAP complexes in COS-7 cells; type: cell-based, African Green Monkey; conditions: un-transfected COS-7 cells, apoptosis induced with staurosporine, IP anti-ARTS
Experimental: Protein extracts were prepared with lysis buffer (150 mM NaCl, 50 mM Tris-HCl (pH 8), 1% NP-40, 0.5% deoxycholate acid) with protease inhibitors. Lysates containing equal amounts of total protein were pre-cleared overnight with 1 mg mouse IgG (Sigma) coupled with protein A/G-Sepharose mix (Amersham Biosciences) and the beads centrifuged. Supernatants were immuno-precipitated using 5 μl of anti-ARTS antibody for 4 h, anti-XIAP antibody, rabbit anti-myc antibody, or mouse IgG (negative control). Protein A/G Sepharose beads were added for 1 hour and washed four times with PBS. Antibodies against XIAP (as above), Myc (Santa Cruz), or anti-ARTS (NT) antibodies directed against the common N′ terminus of ARTS and H5 (ProSci Incorporated) were used for Western blot.

T1 sequence (P98170 whole entry): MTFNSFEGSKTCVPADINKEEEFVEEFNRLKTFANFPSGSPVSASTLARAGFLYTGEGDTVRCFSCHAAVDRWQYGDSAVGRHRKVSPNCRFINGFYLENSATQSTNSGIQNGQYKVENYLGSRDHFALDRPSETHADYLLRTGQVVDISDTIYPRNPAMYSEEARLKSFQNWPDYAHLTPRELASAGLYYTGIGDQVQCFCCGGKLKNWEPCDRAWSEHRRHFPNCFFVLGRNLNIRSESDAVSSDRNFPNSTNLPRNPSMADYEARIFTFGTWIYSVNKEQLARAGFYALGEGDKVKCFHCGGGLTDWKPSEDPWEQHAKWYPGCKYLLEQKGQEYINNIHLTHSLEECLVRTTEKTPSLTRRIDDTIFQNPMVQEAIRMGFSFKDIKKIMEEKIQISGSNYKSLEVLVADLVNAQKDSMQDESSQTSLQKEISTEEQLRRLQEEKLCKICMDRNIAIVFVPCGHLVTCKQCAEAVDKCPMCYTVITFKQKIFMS

binding to GST-XIAP ([2]; lysates of COS-7 cells transfected with AU5-tagged construct, Western blot anti-AU5): bound to XIAP
binding of XIAP to GST-ARTS ([2]; lysates of COS-7 cells transfected with pcDNA3 mycXIAP, Western blot anti-XIAP and anti-Myc): XIAP bound to ARTS
B1: AU5-ARTS (other)
chain: MIKRFLEDTTDDGELSKFVKDFSGNASCHPPEAKTWASRPQVPEPRPQAPDLYDDDLEFRPPSRPQSSDNQQYFCAPAPLSPSARPRSPWGKLDPYDSSEDDKEYVGFATLPNQVHRKSVKKGFDFTLMVAGESGLGKSTLVNSLFLTDLYRDRKLLGAEERIMQTVEITKHAVDIEEKGVRLRLTIVDTPGFGDAVNNTECWKPVAEYIDQQFEQYFRDESGLNRKNIQDNRVHCCLYFISPFGHGYGPSLRLLAPPGAVKGTGQEHQGQGCH
notes: Expressed in transfected COS-7 cells and used as lysate or stained in cells; also called pEF1-AU5-ARTS; AU5-tagged ARTS; not shown: AU5 tag attached to the N' terminus of ARTS
caspase-3 activity ([1]; expression of ARTS in the absence of pro-apoptotic stimuli, COS-7 cells): little or no effect
caspase-3 activity ([1]; over-expression of ARTS, COS-7 cells treated with etoposide): increased caspase-3 activity
caspase-3 activity ([3]; expression of ARTS in the absence of pro-apoptotic stimuli, K562 cells): little or no effect
caspase-3 activity ([3]; over-expression of ARTS, K562 cells treated with ara-C): increased caspase-3 activity
interaction with CIAP [4]: interact with ARTS
caspase-3 activity ([5]; expression of ARTS in the absence of pro-apoptotic stimuli, HL-60 cells): increased caspase-3 activity
caspase-3 activity ([5]; over-expression of ARTS, HL-60 cells treated with ara-C): increased caspase-3 activity
caspase-3 activity ([6]; expression of ARTS in the absence of pro-apoptotic stimuli, A549 cells): little or no effect
caspase-3 activity ([6]; over-expression of ARTS, A549 cells treated with TGF-β): increased caspase-3 activity
interaction of endogenous ARTS and XIAP [7]: interact with each other
